Target: human CTLA-4Ig (R&D Systems) (human) (UniProt P16410)
Test: ELISA, human CTLA-4Ig immobilized on the plate, detection with anti-human Fab-HRP, OD450; unit taken from the x axis; fit value of a flat control curve, far beyond the range tested

Sequence of UniProt P16410 (P16410 37-162): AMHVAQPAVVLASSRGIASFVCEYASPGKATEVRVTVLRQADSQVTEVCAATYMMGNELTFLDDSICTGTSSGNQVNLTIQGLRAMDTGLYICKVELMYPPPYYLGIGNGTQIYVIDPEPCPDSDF

EC50: 51.3 µM
Substance: hIgG Control (antibody)

From patent US20190248924A1
